In the supplement of paper PMC10567573:

B1: INTS4 (parent)
chain: TIIEPAGESDNPLRFTSGLVVALD

Variants of: B1
Assay: protein stability index of a GFP-peptide fusion (GPS, HEK-293T) (PSI 1-6); higher = more stable
Details: c terminus: a fixed tail appended
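Note: lentivirally expressed fusions sorted by FACS into six bins by GFP to DsRed ratio, PSI derived from sequencing read proportions per bin multiplied by bin number.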

In order of rising protein stability index:
1. TIIEPAGWSDNPLRFTSGLVVALD  1.5
2. TIIEPAGESDNPLRFTCGLVVALD  1.52
3. TIIEPAGESDWPLRFTSGLVVALD  1.63
4. TIIEPAGESDFPLRFTSGLVVALD  1.66
5. TIIEPAGESDNPLRFTMGLVVALD  1.67
6. TIIEPAGESDNPLRFYSGLVVALD  1.74
7. TIIEPAGESDNPLRFWSGLVVALD  1.76
8. TIIEPAGESLNPLRFTSGLVVALD  1.85
9. TIIEPAGESYNPLRFTSGLVVALD  1.89
10. TIIEPAGKSDNPLRFTSGLVVALD  1.9
11. TIIEPAGESDNPLRFCSGLVVALD  1.91
12. TIIEPAGESDNYLRFTSGLVVALD  1.96
13. TIIEPAGESDNPLRFLSGLVVALD  1.99
14. TIIEPAGYSDNPLRFTSGLVVALD  1.99
15. TIIEPAGESDNPLRFMSGLVVALD  2
16. TIIEPAGESVNPLRFTSGLVVALD  2
17. TIIEPAGESDNPLRFVSGLVVALD  2.01
18. TIIEPAGISDNPLRFTSGLVVALD  2.02
19. TIIEPAGESDNPLWFTSGLVVALD  2.03
20. TIIEPAGESDNPLFFTSGLVVALD  2.04
21. TIIEPAGESCNPLRFTSGLVVALD  2.08
22. TIIEPAGESINPLRFTSGLVVALD  2.08
23. TIIEPAGESDNPLRFTFGLVVALD  2.08
24. TIIEPAGESDNLLRFTSGLVVALD  2.1
25. TIIEPAGESDNWLRFTSGLVVALD  2.14
26. TIIEPAGESMNPLRFTSGLVVALD  2.15
27. TIIEPAGPSDNPLRFTSGLVVALD  2.15
28. TIIEPAGEWDNPLRFTSGLVVALD  2.19
29. TIIEPAGFSDNPLRFTSGLVVALD  2.19
30. TIIEPAGESDNPLRWTSGLVVALD  2.2
31. TIIEPAGCSDNPLRFTSGLVVALD  2.2
32. TIIEPAGESDMPLRFTSGLVVALD  2.21
33. TIIEPAGESDNPLRFISGLVVALD  2.21
34. TIIEPAGESDNPLYFTSGLVVALD  2.21
35. TIIEPAGESDNPLRFHSGLVVALD  2.23
36. TIIEPAGESRNPLRFTSGLVVALD  2.23
37. TIIEPAGNSDNPLRFTSGLVVALD  2.23
38. TIIEPAGASDNPLRFTSGLVVALD  2.23
39. TIIEPAGHSDNPLRFTSGLVVALD  2.23
40. TIIEPAGESDYPLRFTSGLVVALD  2.25
41. TIIEPAWESDNPLRFTSGLVVALD  2.26
42. TIIEPAGESDPPLRFTSGLVVALD  2.27
43. TIIEPAGESDNILRFTSGLVVALD  2.27
44. TIIEPAGESDNPLRFTIGLVVALD  2.27
45. TIIEPAGESDNPLMFTSGLVVALD  2.27
46. TIIEPAGECDNPLRFTSGLVVALD  2.28
47. TIIEPAGESKNPLRFTSGLVVALD  2.32
48. TIIEPAGGSDNPLRFTSGLVVALD  2.32
49. TIIEPAGESDVPLRFTSGLVVALD  2.33
50. TIIEPAGESDNPFRFTSGLVVALD  2.33
51. TIIEPAGESDNMLRFTSGLVVALD  2.33
52. TIIEPAGESDNPLRFFSGLVVALD  2.35
53. TIIEPAGLSDNPLRFTSGLVVALD  2.37
54. TIIEPAGESDGPLRFTSGLVVALD  2.38
55. TIIEPAGELDNPLRFTSGLVVALD  2.38
56. TIIEPAGESDNFLRFTSGLVVALD  2.41
57. TIIEPAGESDIPLRFTSGLVVALD  2.42
58. TIIEPAGESDLPLRFTSGLVVALD  2.42
59. TIIEPAYESDNPLRFTSGLVVALD  2.45
60. TIIEPAGESDNPLIFTSGLVVALD  2.46
61. TIIEPAGESDHPLRFTSGLVVALD  2.47
62. TIIEPAGEYDNPLRFTSGLVVALD  2.48
63. TIIEPAGESQNPLRFTSGLVVALD  2.49
64. TIIEPAGESDNPLRFTHGLVVALD  2.5
65. TIIEPAGESDNPLRFTAGLVVALD  2.51
66. TIIEPAGESDNCLRFTSGLVVALD  2.52
67. TIIEPAGESDNVLRFTSGLVVALD  2.53
68. TIIEPAGESDNPLRFTNGLVVALD  2.53
69. TIIEPAGMSDNPLRFTSGLVVALD  2.54
70. TIIEPAGESGNPLRFTSGLVVALD  2.56
71. TIIEPAGEADNPLRFTSGLVVALD  2.57
72. TIIEPAGESDSPLRFTSGLVVALD  2.6
73. TIIEPAGESDNKLRFTSGLVVALD  2.61
74. TIIEPAGESDNHLRFTSGLVVALD  2.61
75. TIIEPAGTSDNPLRFTSGLVVALD  2.61
76. TIIEPAGESENPLRFTSGLVVALD  2.62
77. TIIEPAGESDNPLCFTSGLVVALD  2.62
78. TIIEPAGQSDNPLRFTSGLVVALD  2.62
79. TIIEPAGESTNPLRFTSGLVVALD  2.63
80. TIIEPAGESDTPLRFTSGLVVALD  2.64
81. TIIEPAGESFNPLRFTSGLVVALD  2.65
82. TIIEPAGESDNRLRFTSGLVVALD  2.65
83. TIIEPAGESDNPLRFTKGLVVALD  2.65
84. TIIEPAGEFDNPLRFTSGLVVALD  2.65
85. TIIEPAGVSDNPLRFTSGLVVALD  2.66
86. TIIEPAGESDNGLRFTSGLVVALD  2.68
87. TIIEPAGESSNPLRFTSGLVVALD  2.72
88. TIIEPAGESDNPLRFASGLVVALD  2.74
89. TIIEPAGESHNPLRFTSGLVVALD  2.75
90. TIIEPAGEGDNPLRFTSGLVVALD  2.75
91. TIIEPAVESDNPLRFTSGLVVALD  2.76
92. TIIEPAGESDNALRFTSGLVVALD  2.76
93. TIIEPAGESDNPLKFTSGLVVALD  2.77
94. TIIEPAGEQDNPLRFTSGLVVALD  2.77
95. TIIEPAGEIDNPLRFTSGLVVALD  2.78
96. TIIEPAGERDNPLRFTSGLVVALD  2.79
97. TIIEPAGESPNPLRFTSGLVVALD  2.83
98. TIIEPAGESWNPLRFTSGLVVALD  2.85
99. TIIEPAGESDKPLRFTSGLVVALD  2.86
100. TIIEPAGESDNPLVFTSGLVVALD  2.86
101. TIIEPAGESDNPIRFTSGLVVALD  2.87
102. TIIEPAGESDNPLRYTSGLVVALD  2.87
103. TIIEPAGEKDNPLRFTSGLVVALD  2.87
104. TIIEPAGESDNPLRFSSGLVVALD  2.88
105. TIIEPAGESDNNLRFTSGLVVALD  2.88
106. TIIEPAGDSDNPLRFTSGLVVALD  2.88
107. TIIEPAGESDCPLRFTSGLVVALD  2.9
108. TIIEPAGESDNPLRFTGGLVVALD  2.9
109. TIIEPAGETDNPLRFTSGLVVALD  2.9
110. TIIEPAGEVDNPLRFTSGLVVALD  2.92
111. TIIEPAGESDNTLRFTSGLVVALD  2.93
112. TIIEPAGESDNPCRFTSGLVVALD  2.94
113. TIIEPAGESANPLRFTSGLVVALD  2.96
114. TIIEPAGESDNPLLFTSGLVVALD  2.96
115. TIIEPAGESDNPLTFTSGLVVALD  2.96
116. TIIEPAGESDNPLRFTPGLVVALD  2.99
117. TIIEPAGESDQPLRFTSGLVVALD  3
118. TIIEPAGESDNPLRFPSGLVVALD  3
119. TIIEPAGESDNPVRFTSGLVVALD  3.01
120. TIIEPAGESDNPLRFKSGLVVALD  3.02
121. TIIEPAGESDNPNRFTSGLVVALD  3.06
122. TIIEPATESDNPLRFTSGLVVALD  3.08
123. TIIEPAGSSDNPLRFTSGLVVALD  3.08
124. TIIEPAGESDNPLRFTLGLVVALD  3.12
125. TIIEPAGESDAPLRFTSGLVVALD  3.13
126. TIIEPAGESDNSLRFTSGLVVALD  3.13
127. TIIEPAGESDNELRFTSGLVVALD  3.13
128. TIIEPAGESDNPGRFTSGLVVALD  3.14
129. TIIEPAGESDNPWRFTSGLVVALD  3.14
130. TIIEPAGESDNPLRFGSGLVVALD  3.15
131. TIIEPAGRSDNPLRFTSGLVVALD  3.15
132. TIIEPAGEMDNPLRFTSGLVVALD  3.16
133. TIIEPAGESDNPYRFTSGLVVALD  3.17
134. TIIEPAGEHDNPLRFTSGLVVALD  3.17
135. TIIEPAGESDRPLRFTSGLVVALD  3.19
136. TIIEPAGESDNPLRLTSGLVVALD  3.21
137. TIIEPAGESDNPLGFTSGLVVALD  3.25
138. TIIEPAGEPDNPLRFTSGLVVALD  3.25
139. TIIEPAGENDNPLRFTSGLVVALD  3.25
140. TIIEPAGESDNPLQFTSGLVVALD  3.26
141. TIIEPAGEDDNPLRFTSGLVVALD  3.29
142. TIIEPAGESDEPLRFTSGLVVALD  3.33
143. TIIEPAGESDDPLRFTSGLVVALD  3.33
144. TIIEPAGESDNPLRFRSGLVVALD  3.35
145. TIIEPAGESDNPLRFQSGLVVALD  3.35
146. TIIEPAGESDNPMRFTSGLVVALD  3.35
147. TIIEPAGESDNPHRFTSGLVVALD  3.38
148. TIIEPAGESDNPLRFNSGLVVALD  3.39
149. TIIEPAGESDNDLRFTSGLVVALD  3.4
150. TIIEPAGESDNPLPFTSGLVVALD  3.4
151. TIIEPAGESDNPLRFESGLVVALD  3.44
152. TIIEPAGESDNPLRMTSGLVVALD  3.44
153. TIIEPAGESDNPQRFTSGLVVALD  3.5
154. TIIEPAGESDNPLRKTSGLVVALD  3.54
155. TIIEPAGESDNPPRFTSGLVVALD  3.6
156. TIIEPAGESNNPLRFTSGLVVALD  3.61
157. TIIEPAGESDNPLAFTSGLVVALD  3.63
158. TIIEPAGESDNPLSFTSGLVVALD  3.63
159. TIIEPAGESDNPKRFTSGLVVALD  3.64
160. TIIEPAGESDNPRRFTSGLVVALD  3.65
161. TIIEPAGESDNPLRITSGLVVALD  3.72
162. TIIEPAGESDNQLRFTSGLVVALD  3.73
163. TIIEPAGESDNPLRFTEGLVVALD  3.73
164. TIIEPAGEEDNPLRFTSGLVVALD  3.73
165. TIIEPAGESDNPARFTSGLVVALD  3.81
166. TIIEPAGESDNPSRFTSGLVVALD  3.86
167. TIIEPAGESDNPLRCTSGLVVALD  3.87
168. TIIEPAGESDNPLRPTSGLVVALD  3.9
169. TIIEPAGESDNPLHFTSGLVVALD  3.91
170. TIIEPAGESDNPLRFDSGLVVALD  3.92
171. TIIEPAGESDNPLRFTDGLVVALD  3.92
172. TIIEPAGESDNPLRRTSGLVVALD  3.92
173. TIIEPAGESDNPLDFTSGLVVALD  3.93
174. TIIEPAGESDNPLNFTSGLVVALD  3.95
175. TIIEPAGESDNPLRVTSGLVVALD  3.97
176. TIIEPAGESDNPLRQTSGLVVALD  3.99
177. TIIEPAGESDNPTRFTSGLVVALD  4.03
178. TIIEPAGESDNPLRGTSGLVVALD  4.03
179. TIIEPAGESDNPERFTSGLVVALD  4.12
180. TIIEPAGESDNPLRSTSGLVVALD  4.21
181. TIIEPAGESDNPLEFTSGLVVALD  4.21
182. TIIEPAGESDNPLRATSGLVVALD  4.29
183. TIIEPAGESDNPLRTTSGLVVALD  4.3
184. TIIEPAGESDNPLRNTSGLVVALD  4.36
185. TIIEPAGESDNPLRHTSGLVVALD  4.37
186. TIIEPAGESDNPDRFTSGLVVALD  4.41
187. TIIEPAGESDNPLRETSGLVVALD  4.63
188. TIIEPAGESDNPLRDTSGLVVALD  5.04
